Data taken from the supplement of paper PMC10724198.

What was measured:
Saccharomyces cerevisiae [1] = assay: protein stability index of tFT-peptide fusion in wild type (PSI (0-1 scale)); higher = more stable (slower turnover); settings: genetic background: wild type
Saccharomyces cerevisiae [2] = assay: protein stability index of tFT-peptide fusion in deletion strain of DOA10 (PSI (0-1 scale)); higher = more stable (slower turnover)
Protocol: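 MPS profiling in S. cerevisiae of two library types built from selected 12-aa C-degron peptides (IN1, IN2, LN1, LN3, VN2, R1-R5, W1-W3, Atg1 and Rpa12 C-termini): saturation mutagenesis libraries and C-terminal +1 capping libraries (13 aa). Each peptide is fused to the C-terminus of a sfGFP-mCherry timer, after a GGGS linker. Cells are FACS-sorted into 8 mCherry/sfGFP bins and sequenced. PSI runs from 0 (unstable) to 1 (stable), measured once in wild type and in the das1Δ or doa10Δ background.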
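For protein stability index of tFT-peptide fusion in deletion strain of DOA10 in this document: PSI per variant is the weighted mean of its sequencing read distribution over the sorted stability bins, counting only variants with over 10 reads summed across bins.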
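For protein stability index of tFT-peptide fusion in wild type in this document: PSI derived as read-weighted mean over the 8 sorting bins, only variants exceeding 10 total reads kept, mCherry placed adjacent to the peptide and sfGFP distal.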

Sequence	protein stability index (Saccharomyces cerevisiae [1])	protein stability index (Saccharomyces cerevisiae [2])
RSLRVLLPCYFR	0.409	0.647
RVTRLDSIYFRI	0.46	0.703
RSLCVLLPLYFR	0.247	0.616
RVTRLDGIYFRI	0.389	0.567
RSLRALLPLYFR	0.491	0.684
RVTRLDAIYCRI	0.621	0.696
RCLRVLLPLYFR	0.257	0.647
VSLRVLLPLYFR	0.283	0.611
RVTRLDHIYFRI	0.281	0.717
GLYMCSVGCWFA	0.35	0.371
AITLPICPLLLR	0.194	0.667
WVTRLDAIYFRI	0.161	0.62
RVTRLDAIVFRI	0.534	0.693
CLRSLPILLFFR	0.0732	0.619
RVTRLDAIYFRIC	0.0626	0.103
CLVSLPLLLFFR	0.0578	0.606
RVTRNDAIYFRI	0.552	0.694
AITLPMCPNLLR	0.645	0.672
RSLRVLLPLYFG	0.452	0.591

Sequence	protein stability index (Saccharomyces cerevisiae [1])	protein stability index (Saccharomyces cerevisiae [2])
CLVSLPGLLFFR	0.126	0.656
RVTALDAIYFRI	0.558	0.69
AKTLPMCPLLLR	0.352	0.672
RVTRLFAIYFRI	0.177	0.409
CLVSLPILKFFR	0.63	0.666
GLYMCTVGCWFR	0.219	0.527
RSLHVLLPLYFR	0.273	0.634
GLYMCSVGYWFR	0.213	0.603
RSLRQLLPLYFR	0.466	0.68
RVTRLDAIYFRIM	0.0601	0.129
WSLRVLLPLYFR	0.269	0.636
ESLRVLLPLYFR	0.308	0.683
CLVSLPILLFFRH	0.0656	0.577
RVTRLDCIYFRI	0.367	0.647
CLSSLPILLFFR	0.0943	0.641
RHTRLDAIYFRI	0.517	0.679
CLVSLPILLFFA	0.256	0.346
RVFRLDAIYFRI	0.319	0.619
